Measured values reported in US20030228654A1, “Method for producing antimicrobial protein and fusion protein” (KABUSHIKI KAISHA TOYOTA CHUO KENKYUSHO, priority 2000, published 2003).

Test system: Ceratocystis fimbriata
Experiment: Assay of antimicrobial activity: growth inhibition of Ceratocystis fimbriata spore suspension in 96-well microplate, absorbance at 415 nm
Assay type: cell-based
Settings: Factor Xa-cleaved, concentrated protein solution 30 μl per well; MES buffer pH 6; 26° C.; absorbance 415 nm, 48 hours vs 30 minutes
Protocol: As shown in SEQ ID No: 1, 2 or 4, the fusion proteins of Examples 1 and 2 and Comparative Example 2 thus dialyzed retained the recognition sequence of a protease Factor Xa in between thionin and the partner protein. Then, the fusion protein was subjected to cleavage with Factor Xa of 30 μg per 1 mg of each fusion protein described above at 30° C. overnight.
The protein solution recovered by the cleavage procedures was concentrated to 30 μl using Microcon-3 (MWCO: 3000) as a concentration unit with a filtration membrane. Such great number of concentrated sample solutions were divided at 30 μl each in the individual wells of a 96-well microplate, followed by addition of 10 μl of 200 mM MES [2-(N-morpholino)ethanesulfonic acid] buffer at pH 6 and 60 μL of a spore suspension of Ceratocystis fimbriata (100,000 spores per 1 ml-80% potato dextrose broth). Then, the resulting mixtures were cultured at 26° C. […]
Then, the absorbance 30 minutes and 48 hours later was measured at 415 nm with a microplate reader of Model 3550. The growth inhibition was determined by the following formula (1). Herein, A represents the value obtained by subtracting the absorbance measured 30 minutes later from that measured 48 hours later in each concentrated sample solution, and B represents the same value in a solution not containing the sample. […]

B1: Example 2: Fusion protein of barley thionin and PDI from Fumicola insolens (SEQ ID No: 2); refolded, cleaved with Factor Xa (protein)
chain: EKHMIEGRMKSCCRSTLGRNCYNLCRVRGAQKLCAGVCRCKLTSSGKCPTGFPKMIEGRTLALVSNSDEPDTVKYCNLGCRASMCDYMVNAAADDEEMKLYLENCGDACVNFCNGDAGLTSLTA
modifications: Hordeum vulgare
**Q.** For B1, which “Growth inhibition (%)” value is on record?
**A.** 99.1%
